B1: anti-renalase monoclonal antibody 1F-26-1 (antibody, V domains shown)
VH: QSVKESEGGLFKPTDTLTLTCTVSGFSLSSYGVTWVRQAPGNGLEWIGLIGDRGTTFYASWAKSRSTITRNTNLNTVTLKMTRLTAADTATYFCARGSGYGARIWGPGTLVTVSS
VL: AQVLTQTPSPVSAAVGGTVTINCQSSQSVYKNNYLAWYQQKPGQPPKLLIYETSKLASGVPPRFSGSGSGTQFTLTISSVQCDDAATYYCQGGYSGVDFMAFGGGTEVVVKG
notes: Rabbit monoclonal IgG raised against peptide 1F; Biotinylated in the Biacore study; also called Bio-1F 26-1
B2: anti-renalase monoclonal antibody 1F-42-7 (antibody, V domains shown)
VH: QSVKESEGGLFKPTDTLTLTCTVSGFSLTTYGVTWVRQAPGNGLEWIGLIGDRGTTYYASWVNGRSTITRNTNLNTVTLKMTRLTAADTATYFCARGSGYGARIWGPGTLVTVAS
VL: AQVLTQTPSPMSAALGGTVTINCQSSQTVYNNNYLSWYQQKPGQPPKLLIYETSKLSSGVPPRFSGSGSGTQFTLTISSVQCDDAATYYCQGGYSGVDFMAFGGGTEVVVKG
notes: Rabbit monoclonal IgG raised against peptide 1F; Biotinylated in the Biacore study; also called Bio-1F 42-7
B3: anti-renalase monoclonal antibody 1D-28-4 (antibody, V domains shown)
VH: QSVEESGGRLVTPGTPLTLTCTVSGFSLSSFAVGWVRQAPGKGLEYIGIISSVGITRYASWAAGRFTISKTSTTVDLKITSPTTEDTATYFCARYGYSGDVNRLDLWGQGTLVTVSS
VL: AQVLTQTASPVSAAVGGTVTINCQASQSVYDNNNLAWYQQKPGQPPKQLIYGASTLASGVSSRFKGSGSGTQFTLTISGVQCDDAATYYCLGEFSCSSADCFAFGGGTEVVVKG
notes: Rabbit monoclonal IgG raised against peptide 1D (RP-220); also called m28-RNLS; Bio-1D 28-4
B4: anti-renalase monoclonal antibody 1D-37-10 (antibody, V domains shown)
VH: QSVEESGGRLVTPGGSLTLTCTVSGFSLSDYAIIWVRQAPGKGLEYIAIIGSSGDTFYATWAKGRFTISKTSTTVDLKMTSLTAADTATYFCAPRYAGTTDYHDAFDPWGPGTLVTVSS
VL: EVVMTQTPASMEAPMGGTVTIKCQASQNIYNYLSWYQQKPGQPPKLLVYKASTLTSGVPSRFKGSGSGTQFTLTISDLECADAATYYCQINYSIYNHYNIIFGGGTEVVVKG
notes: Rabbit monoclonal IgG raised against peptide 1D (RP-220); Biotinylated in the Biacore study; also called m37-RNLS; Bio-1D 37-10

T1 sequence (Q5VYX0 18-342 limits assumed): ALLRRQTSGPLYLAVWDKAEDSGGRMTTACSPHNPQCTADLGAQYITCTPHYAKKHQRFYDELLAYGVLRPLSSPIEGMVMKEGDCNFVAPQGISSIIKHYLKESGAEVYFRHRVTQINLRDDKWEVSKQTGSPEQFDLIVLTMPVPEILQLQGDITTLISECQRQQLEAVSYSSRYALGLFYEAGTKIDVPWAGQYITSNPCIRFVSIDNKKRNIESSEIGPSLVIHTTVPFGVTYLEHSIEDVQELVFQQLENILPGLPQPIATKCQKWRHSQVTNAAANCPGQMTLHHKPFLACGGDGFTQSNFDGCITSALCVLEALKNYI

The experiment addresses T1, human renalase-1 (Homo sapiens, UniProt Q5VYX0 18-342, limits assumed).
T1 construct: Whole entry named for renalase-1 (Glu at position 37); also called R1; HuRenalase-1
Briefly: SPR, Biacore T100; biotinylated antibody captured on streptavidin chip, renalase-1 in solution. The protocol: Binding studies were performed using a Biacore T100. Binding studies were performed at 25° C. using 25 mM Tris pH 8, 150 mM NaCl, 1 mM EDTA, 10% glycerol, 0.005% Tween-20 and 0.1 mg/mL BSA as the running buffer. The biotinylated antibodies were captured on individual streptavidin sensor chip flow cells as shown below. Because the study took two sensor chips, the analysis of two of the mAbs on the second sensor chip was repeated to gather more data. Renalase-1 was tested at 50 nM as the highest concentration in a three-fold dilution series. Each of 5 concentrations was tested in duplicate. Bound complexes were regenerated with a short pulse of 1/1000 phosphoric acid.
(SPR reads the build-up and loss of mass on a sensor chip optically.)
Turning to B1, the equilibrium dissociation constant (Kd) was found to be 2.25 nM, the koff was 0.000102 s⁻¹ and the kon came to 45300 M⁻¹ s⁻¹.
In turn, B2 gave a Kd of 2.41 nM, a koff of 9.47e-05 s⁻¹ and a kon of 39300 M⁻¹ s⁻¹.
In the same order, the values of B3 are 0.316 nM, 2.04e-05 s⁻¹ and 64700 M⁻¹ s⁻¹.
On the same counts, the results for B4 are 2.67 nM, 4.67e-05 s⁻¹ and 17500 M⁻¹ s⁻¹.

As a reminder, the Kd is the constant that tells how readily two partners part at equilibrium. What is called koff is the first-order rate constant of dissociation. By kon is commonly meant the rate constant with which the complex forms.

The values above are taken from patent publication US20210355235A1 (YALE UNIVERSITY, published 2021).
